Results: the domain aggregation screens of Martell et al. (2025)

Test: soluble fraction after stress (log2 fold change); higher = more stays soluble; pooled small domains, quantitative proteomics
Settings: stress: pH 4
Procedure, shortened: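 After pH 4 stress, pooled custom libraries of small protein domains were quantified with high-throughput quantitative proteomics. Aggregation propensity is taken from the fold change in each domain's soluble amount following the acid stress. The scale is log2, where higher values mean more stayed soluble.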
With “HMRAGHDFEALKHIESSLDKHLTDEGIKIKSEKRGAIVARWYQSHVEGREVTDDDVHTWIELFF” the “soluble fraction (log2)” value was -2.2. With “HMRAPIGFRISNRRKSLKISQVALARLVGISPSYLNLIENNKRDVGGALLQRVALHLNIDIDDL” the “soluble fraction (log2)” value was -0.219. In the case of “HMRARTLSTTGGESLLTLAESLYPDDDRARARFIEATAAANPKLFADIAALTRVLPAGTTLRMPDLRA”, the “soluble fraction (log2)” value is reported as 0.129. For “HMRARTQYWPFVEEKAAELKLPLHLVNVEPLFGEQKVVVHYTANGRIDFRELVHLLARRFHARIEMR”, the “soluble fraction (log2)” value was 0.0493. For “HMRATLTDETARVVQEPTSESISLTSLRKGEEFEIGKVIRKKKEVWVTVTTSSGVKGYISGDTHIF”, the “soluble fraction (log2)” value was ≥ 0.43. For “HMRAVFEQLRIGQTLAGVVKAQEKGFSLVEIDGQTVAMRLPHPAAVGDTLRLRFAGHMPQAVFLLES”, the “soluble fraction (log2)” value was -0.178. In the case of “HMRAVPSIAFVTQKLIEQGVTMEQLVRSLLLDHEEYENDDSLERTADELFGKARMIISNYTPE”, the “soluble fraction (log2)” value is reported as -1.04. With “HMRDADRYAFMQENVEDFAKDMRRKHMTYDVLYEEYIRRTDNPYGYTQFKAIVQEYEKNHDYK” the “soluble fraction (log2)” value was 0.253. With “HMRDGYEKPTEVGEGGRNPAMLSYIGHLRAKGHLSEEDIRSMAHGFNATTFDPPLDRDEVDGLVSRY” the “soluble fraction (log2)” value was ≥ 0.43. In the case of “HMRDITAQSNASELYFEERDLEAFIEKLERLYPEIRYVNRLMIHSWGQQVVRFFDPDGNLIEVGTP”, the “soluble fraction (log2)” value is reported as -1.28. For “HMRDKTMLGNVIRTRRKKMNLTLEELSKQVGITSGGLSQIERGLVDPSLSVLRRISRALNLPMNVMFSE”, the “soluble fraction (log2)” value was ≥ 0.43. For “HMRDLAEAETILDALPTRLRKIVRWRHLEGLSQTEIAARLEISQMHVSRLYRRAISMIHASLADD”, the “soluble fraction (log2)” value was -0.843. For “HMREEQELFRKLLEVNGIGPKVAAGMLAGGRPEDVVSAIRREDVAWLTKLPGIGRKTAQRIVLDLKDKLD”, the “soluble fraction (log2)” value was 0.165. With “HMREPQMVTVNGDKVTHGHAYRSNVNPEDWYFTARINGQQLKPQKMEPADVAAYDKKEIGVPELMQR” the “soluble fraction (log2)” value was -0.0539. With “HMRESPYRRVAKFLLLIGTAEAAKIVSRLDQDQVEKVMLELSGIRSVPRDEATVILAEFESLLQQAR” the “soluble fraction (log2)” value was -1.2. In the case of “HMRESRLFQILYQLLTKKKVTAANLAKQFEVSVRTIYRDIDALSSSGIPIYASQGKNGGIQLDEDF”, the “soluble fraction (log2)” value is reported as -0.999. For “HMRETELPVTIISAGRILAENLHLAGRDGGWLEAELKRRSLTAEQVLLLTVDAAGTVYLVRKEDL”, the “soluble fraction (log2)” value was -0.617. For “HMREWPLWEIFIRGQHGLNHRHVGSLHAPDAAMAIGNARDVYTRRNEGVSIWAVRSADVVASVPSE”, the “soluble fraction (log2)” value was -1.44. With “HMRGADNAASILKEVGPHPEDGKPITVRSGRYGPYVKHGTTNATLPKDIKPEEITLDEAIALINERVAKG” the “soluble fraction (log2)” value was -0.143. With “HMRGGKGTVPDVTGMDAAAAVRILEKAGMNVAYIRGAGFVAEQTPAAGTKLKKGDKAYITLSWK” the “soluble fraction (log2)” value was 0.181. For “HMRGGWESLTDREREIAVLAAEGHSNRTIASTLFISDRTVQSHVSRALRALGVDSRTGIPSLVTTATR”, the “soluble fraction (log2)” value was -0.217. With “HMRGWGTVKRRTPKSGRYRASYIGPDGKRYAADHTYAAKVDADAWLSSERALITAGVWTPPTDRVT” the “soluble fraction (log2)” value was -0.0591. For “HMRHLSVPSQDTQQVLQRLKVELALPEGARVRSDPSDPGRRLIPFTESVPQEMIDQYPVVSINI”, the “soluble fraction (log2)” value was -0.458. In the case of “HMRIAGIDIPDNKRGEVALTYIFGIGRSSSKKILKSAGIDSDKQIGKWTDDESNLVRKLIRDEYTIEGDL”, the “soluble fraction (log2)” value is reported as -0.484. For “HMRIASANAIYDELLNKRDDAKLAELKQEDINLYALYILQNGSADERAALENTQGIDVVLKEIINLQNG”, the “soluble fraction (log2)” value was -0.416. In the case of “HMRIGINDRIHEIVDVLRLKKSTPFEDLFSGLVTRFDLVITFLALLEMGKLRLLRLYQTDPLAPLHVEYTG”, the “soluble fraction (log2)” value is reported as 0.0416. In the case of “HMRILDFPALKTEFDQLTKDLMAKYPEDGADRVRAIIETVLGPGKKVGALQPHQAELLAEVNTSLKANL”, the “soluble fraction (log2)” value is reported as -0.0969. For “HMRILGIDPGTRITGYGIIDIEGNRLRHVDNGIIKTRSSDALPLRLKVIYDGLTAVLKQYSPQAV”, the “soluble fraction (log2)” value was -0.629. In the case of “HMRIQTVDYNTFISMVEDGKVDAAEIQQQENRILFSDQDQKVYKTAMVPDDDLTQRLLDAGVSTNG”, the “soluble fraction (log2)” value is reported as -0.837. In the case of “HMRISKRQLILESAAAIINEKGADYLTLDAVAQRAGISKGGLFYHFKSKDELIKELVNYANN”, the “soluble fraction (log2)” value is reported as -1.57. For “HMRISLKAQVYEYLKQAIINGDLKVGEIYSEQYFADKLSISRTPVREAILQLQHENMVEVKANRGIIVK”, the “soluble fraction (log2)” value was -0.406. With “HMRITTKNYFKAISEVGFENLPEVLKKSHLVIEEKTNKGNDWGIYENDAEAKKVFDLAFDKLEEFIDRKED” the “soluble fraction (log2)” value was -0.203. In the case of “HMRIVQTDYRNFLSQVESGAVRSVQIDETQIRYTALDSGGKEIVYNTGKVDDPGLVNRLYDAGVEFSQVIP”, the “soluble fraction (log2)” value is reported as -1.23. For “HMRKATEVPFTAFKDSIENSHGKLSKAGLARHLADEYGMSQRNMERRINNLIDNKTIKYGNEGGLVWIG”, the “soluble fraction (log2)” value was 0.22. For “HMRKDWTPGAFVEAFVNDTPATRSTILAKAVSAGLSRWAADNLLRTADNDGLMVRQGSGKRNEPFTYRRGP”, the “soluble fraction (log2)” value was 0.22. For “HMRKEEFIRELVLELKQNVSEQVILEQKRFYEEYILTEVRGGKTEEEVIASLSEPRLLAKSIIDAAEAGGD”, the “soluble fraction (log2)” value was -1.5. With “HMRKKDGEAYVLPRPLKKGDSVLIYDIDKKGTVLQPPEKGGKTALIQAGIIQTRVPVSNLRLLE” the “soluble fraction (log2)” value was -0.0646. With “HMRKKIIAQTLEEIRKSKGYSQKQVAAFIKVKPTTYNTYESGRTEPPAEILVRLSYLYRTPVDTLVQRDR” the “soluble fraction (log2)” value was 0.226. In the case of “HMRKMNDAVFYVEMSRPKRGYYTATYKLITRNPNSLPEHEITRRFFQMLEETIRKNPPYYLWTH”, the “soluble fraction (log2)” value is reported as 0.104. In the case of “HMRKPISQEIVDEVLKLAKNNPDWGYDRIAGVMKYLKYDVSATTVRHILDDNGIVPDPERRLR”, the “soluble fraction (log2)” value is reported as -0.0119. With “HMRKRLLQLVHIGKSQLGMDDETYRSLLSQQFYQNSAKNISYSELVKLVKILQQKGAKIRLPH” the “soluble fraction (log2)” value was 0.262. For “HMRKVVLEEKEANYYAEPNSESELLGVLKRGIHLTVTDVKKEAGSDGWVKLVHPDGQEGWISGRARIRV”, the “soluble fraction (log2)” value was -0.209. With “HMRKYKIKEELPDNIYKIIQDNPGIVQKDIYDILGREYQQNISSYIYSMDKNGVIKRDKHGNSYKLYL” the “soluble fraction (log2)” value was -1.01. In the case of “HMRLATSELVYRIRALIRDQELQPGERLGSERALAQSLGISRSDLRMALAVLEASHEVIRKIGRAGGIVVS”, the “soluble fraction (log2)” value is reported as ≥ 0.43. For “HMRLHSSGEDYLKAIFILEAQHSSVRSVEVAEYMNVSKASVSHAVALLKKNGFLKMNQDYDLTER”, the “soluble fraction (log2)” value was -0.906. With “HMRLIALPSVTDISIRQAEATLMSIGIKVSSIQYAPSEYKDLVLEVKYRGQSIIQGAKIPEGSSVVLVAGN” the “soluble fraction (log2)” value was -0.122. With “HMRLPLYLALAQTLRQEIDAKQYKIGAHLPPEDQLVVKYGVSRHTVRQALQELKNEGLITSKAGIGTIVSS” the “soluble fraction (log2)” value was 0.154. In the case of “HMRLPQEVWEKIRAAYEAHGLSFSELAEMYGVNKSNISRRAKAEGWNQAETQRLITATVENE”, the “soluble fraction (log2)” value is reported as 0.211. In the case of “HMRLREETRKVDKTGLIQVDGRHYRVPDEYSQKDVQILMDDNSIMVYRKGDFVIELDKETSVYMPH”, the “soluble fraction (log2)” value is reported as -1.02. For “HMRMETRILTADESGIRLDAFLASRLAVSRSLAASLIDDGNVTLNGTVPKKKTAVNVGDILEVAMP”, the “soluble fraction (log2)” value was 0.22. For “HMRMLTKRRQDLLLELLEERGSITVSEVKDMLDASESTIRRDITALDEEGKLVKVFGGAVAAR”, the “soluble fraction (log2)” value was -0.465. In the case of “HMRMSRSARLFDLLHILRSHRRAVSGQALAQQLGISIRTLYRDIASLQAQGAKIEGEPGVGYMLKP”, the “soluble fraction (log2)” value is reported as -0.0136. In the case of “HMRMTKQRQAVLDELTRVTDFRSAQQIFEDLHSQGHRVGLATIYRSLQGLAEDGSVDTLRSSDGESLY”, the “soluble fraction (log2)” value is reported as -0.169. In the case of “HMRMTRQRKVILEELGKVYTHPTADEIYTMVKEKLPNISLGTVYRNLDLLAENNQVLKLETAGNIRRYD”, the “soluble fraction (log2)” value is reported as -0.375. In the case of “HMRMYDVNEYSDEELHRILDLSSPTDSELEARILQMIQKYKYTNGGDNEKMAVFFENIYHHFFD”, the “soluble fraction (log2)” value is reported as -1.54. With “HMRNAAGGIYGWMTLHQVAETVKLTEEEVIAITNLPAGIPRDVSLKNIEGVNDEELRALLEAYLEKQ” the “soluble fraction (log2)” value was -0.968. With “HMRNISLSLRWHSGEWTADRLKSEVLALPGAMDMTVFEPQSQAYLRVEQGFDTKLLPAGIDVH” the “soluble fraction (log2)” value was -0.958. In the case of “HMRNNKLRRANKLKTEFENLPHIGKKRAHVLLKAFGSTENLKMTTAQALSEAAKISLKQAEEVLEAVRG”, the “soluble fraction (log2)” value is reported as -0.0912. For “HMRNQIRAVITPVPNQERYTVEMTIDDDAGNLLTLQMAAPDRQQAAEFAQRFQKHPEALYHAVLSVLL”, the “soluble fraction (log2)” value was -0.191. With “HMRNSFTVENTGERLDVFLTGQMPEFSRSHIQKLIASGQAWVNGVNRKGNFKLKPHDVVELEVPEPE” the “soluble fraction (log2)” value was 0.169. In the case of “HMRNSVQREWIYDYIQRQDAHLSADEIYEGLLKEGKNISLATVYRNLSILVDEYKIASVMTDSKKQVYDK”, the “soluble fraction (log2)” value is reported as -0.327. With “HMRNTPQRRHAILALLSEQGEVSVDALAKRFSTSEVTIRKDLAAMESHGLLLRRYGGAVPMPQELI” the “soluble fraction (log2)” value was 0.0719. With “HMRPEVALSSRELEILEALATGKSNKELAQRLFISEATVKTHLIHIYQKLGVDTRTAAVTVARERKL” the “soluble fraction (log2)” value was -0.431. For “HMRPEVTEHLKTADAILHGGDINRQSIVDELRQYAPLYIVRGNNDKDWAEAIPHDLTVTLGGVTFFMVHNR”, the “soluble fraction (log2)” value was -0.42. For “HMRPFAMNLLEKHKADIEVWLKHPNMTNTQIKRLLEELGTSVSVSSIDRFISTSFPKLPKHT”, the “soluble fraction (log2)” value was -0.207. With “HMRPIWVQLADDFRHRIVSGQWPPGSKIPSVRELAAETGVNPNTVQRALGALDGEGLTATERTAGRFVTT” the “soluble fraction (log2)” value was -0.0115. With “HMRPKVADIDYFDGKTFTIEDGSKHSITTSEAKKIYFYLVKNGYVDDESHVTDAYRSAATSGTLA” the “soluble fraction (log2)” value was -0.0612. In the case of “HMRPQELSSLNTNQMRLYNSLPEAFITAEAKDIADKLRYSERSLFRFLNESNLFTKTEHGSYAKKA”, the “soluble fraction (log2)” value is reported as -0.585. With “HMRPQYVDLFTKLSAEEAGAITSKLKELKVEYQLADNGSTIKVPQKDAAEIRLELANEGLPA” the “soluble fraction (log2)” value was -0.283.
